# According to PMC8964759, “Exploring a blue-light-sensing transcription factor to double the peak productivity of oil in Nannochloropsis oceanica”:
# B1: g2171 (PAP) promoter probe (dsDNA)
# DNA 1: ACCGCTCCTTACGTGGTTAACATCACCGCTCCTTACGTGGTTAACATC
# DNA 2: GATGTTAACCACGTAAGGAGCGGTGATGTTAACCACGTAAGGAGCGGT
# B2: g5641 (FAE) promoter probe (dsDNA)
# DNA 1: TGGATTGATGGACGTGGAAGCAGCTGGATTGATGGACGTGGAAGCAGC
# DNA 2: GCTGCTTCCACGTCCATCAATCCAGCTGCTTCCACGTCCATCAATCCA
# B3: g4867 (hsp70) control probe (dsDNA)
# DNA 1: TGTGGGGCCTCAGATAAAGGTGCGGCACGTAGGGAGAGACATTG
# DNA 2: CAATGTCTCTCCCTACGTGCCGCACCTTTATCTGAGGCCCCACA
# B4: g9477 (actin) control probe (dsDNA)
# DNA 1: TTCGATAAATGGGGCCGATAAGTGAGGGAAGATGATTTGAGTAAAGTA
# DNA 2: TACTTTACTCAAATCATCTTCCCTCACTTATCGGCCCCATTTATCGAA
# B5: g3857 (TAG-lipase) promoter probe (dsDNA)
# DNA 1: TGGGCTCGGACGCGACGCGGGCTTTGGGCTCGGACGCGACGCGGGCTT
# DNA 2: AAGCCCGCGTCGCGTCCGAGCCCAAAGCCCGCGTCGCGTCCGAGCCCA
# B6: g10411 (lipase; also written g10041) promoter probe (dsDNA)
# DNA 1: TCCAACACGTCGGCCTCCCAAACGCAATTTTGAGGCATGGACGTGGAAAGGG
# DNA 2: CCCTTTCCACGTCCATGCCTCAAAATTGCGTTTGGGAGGCCGACGTGTTGGA
# Molecular target: T1, MBP-NobZIP77 (Nannochloropsis oceanica, UniProt A0A8F2IEU3 1-466)
# T1 sequence: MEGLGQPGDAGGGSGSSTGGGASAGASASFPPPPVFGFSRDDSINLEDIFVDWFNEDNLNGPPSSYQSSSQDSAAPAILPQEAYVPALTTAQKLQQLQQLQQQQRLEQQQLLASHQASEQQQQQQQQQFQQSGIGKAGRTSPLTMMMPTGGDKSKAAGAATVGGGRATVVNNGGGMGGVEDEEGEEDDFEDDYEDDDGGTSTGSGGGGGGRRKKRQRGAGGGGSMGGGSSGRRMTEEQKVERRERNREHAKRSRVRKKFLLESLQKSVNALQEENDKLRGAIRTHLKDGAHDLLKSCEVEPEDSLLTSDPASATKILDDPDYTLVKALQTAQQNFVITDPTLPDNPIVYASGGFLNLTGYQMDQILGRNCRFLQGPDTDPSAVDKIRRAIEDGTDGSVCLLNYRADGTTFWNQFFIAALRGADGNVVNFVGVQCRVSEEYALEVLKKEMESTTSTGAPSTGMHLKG
# Experiment: EMSA; LightShift Chemiluminescent EMSA kit binding buffer (composition, salt and pH not stated), 30 min; light series: 5 nM probe, 25 °C, 60 min, NobZIP77 1:2 dilutions from 24 mM (so in the source); 6% native PAGE at 4 °C
# Details: protein: recombinant; tags: MBP (pMAL-p4X); chain copies: 2; label: 5' biotin; blunt
row,Binder,binding result
1,B1,binds
2,B2,binds
3,B3,no binding
4,B4,no binding

# Molecular target: T1, MBP-NobZIP77
# Experiment: EMSA; shift reduced by 100-fold unlabeled promoter DNA; LightShift Chemiluminescent EMSA kit binding buffer (composition, salt and pH not stated), 30 min; light series: 5 nM probe, 25 °C, 60 min, NobZIP77 1:2 dilutions from 24 mM (so in the source); 6% native PAGE at 4 °C
# Details: protein: recombinant; tags: MBP (pMAL-p4X); chain copies: 2; label: 5' biotin; blunt
row,Binder,binding result
1,B5,binds
2,B6,binds
